Paper PMC8626583, “Collagen’s primary structure determines collagen:HSP47 complex stoichiometry” (The Journal of Biological Chemistry, 2021)
“And” between values parts separate entries of the source, which are not always exact repeats. Equal values may be shown once.

How the values were obtained:
[1] = molecular target: T1, foldon-stabilized collagen model peptide with the guest GPRGFP; assay: ELISA; collagen model peptides or collagen I coated on Nunc MaxiSorp (500 ng/well), blocked with 1% BSA in TBS; soluble HSP47 in a 1:4 dilution series from 8 or 10 μM; detected by anti-His-HRP; triplicates, four-parameter logistic fit
[2] = molecular target: T2, foldon-stabilized collagen model peptide with the guest GPRGPP; assay: as above
[3] = molecular target: T1, foldon-stabilized collagen model …; assay: AUC; sedimentation velocity with fluorescence detection; ATTO488-labelled foldon CMP at 1 μM with HSP47 at ratios (CMP:HSP47) 1:1 to 1:20; 20 mM HEPES, 150 mM NaCl pH 7.5; 42,000 rpm
[4] = molecular target: T2, foldon-stabilized collagen model …; assay: as above

Kd [1]: 12 nM
Kd [2]: 36 nM and 21.7 nM
stoichiometry N (HSP47 per CMP trimer) [3]: 1
stoichiometry N (HSP47 per CMP trimer) [4]: 2
B1: HSP47 (heat shock protein 47), Canis lupus, residues 36-418 with C-terminal hexahistidine tag, C7C419 36-418 (natural protein)
chain: LSPKAATLAERSAGLAFSLYQAMAKDQAVENILLSPVVVASSLGLVSLGGKATTASQAKAVLSAEQLRDEEVHAGLGELLRSLSNSTARNVTWKLGSRLYGPSSVSFAEDFVRSSKQHYNCEHSKINFRDKRSALQSINEWAAQTTDGKLPEVTKDVERTDGALLVNAMFFKPHWDEKFHHKMVDNRGFMVTRSYTVGVTMMHRTGLYNYYDDEKEKLQIVEMPLAHKLSSLIILMPHHVEPLERLEKLLTKEQLKIWMGKMQKKAVAISLPKGVVEVTHDLQKHLAGLGLTEAIDKNKADLSRMSGKKDLYLASVFHATAFEWDTEGNPFDQDIYGREELRSPKLFYADHPFIFLVRDTQSGSLLFIGRLVRPKGDKMRDEL
